Measured values published in the nanobody polyreactivity screen of Harvey et al. (2022).

Experiment: yeast display, Sf9 membrane polyspecificity reagent, FACS + sequencing; frameworks hold sequencing errors
Procedure, shortened: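 Using colony PCR, genes from sorted yeast display clones were amplified, then sequenced on MiSeq at 2 × 250 and filtered by CDR length. The clones had been stained with 10% biotinylated, detergent-solubilized Sf9 membrane reagent for 1 hour at 4 °C and sorted by FACS into low and high (top ~1%) gates on anti-HA and streptavidin fluorescence. Polyreactivity labels come from the gate of origin.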

Row | Sequence | polyreactivity (PSR sort gate)
1 | QVQLVESGAGLVQAGGSLRLSCAASGRILIIYAMGWYRQAPGKERELVARITYTGGRTYYADSVKGRFTISRDNAKNTVYRQMNSLKPDDTAVYYCATDWSRSDSYSHYDSWVQGTQVTVSS | low polyreactivity
2 | QVQLVESGAGLVQAGGSLRLSCAASGRNFQYYAMVWYRQAPGKERELVAAISSGGGTYYADSVKGRFTISRDNAKNTVYLQMNSLKPEDTAVYYCAARYVYHRGFDYWGQGTQVTVSS | high polyreactivity
3 | QVQLVESGAGLVQAGGSLRLSCAASGRTFNFYTMGWYRQAPGKERELVAAIDASGGRTYYADSVKGRFTISRDNAKNTVYLQMNSLKPEDTAVYYCAKYPRYSYVGYGYWGQGTQVTVSS | high polyreactivity
4 | QVQLVESGAGLVQAGGSLRLSCAASGSIFGFYAMGWYRQAPGKERELVASISSSGDSTYYADSVKGRFTISRDNAKYTVYLPMNSLKPEDTAVYYCAAVVYDIYGYEFDYWGLGTQVTVSS | low polyreactivity
5 | QVQLVESGAGLVQAGGSLRLSCAASGSIFGPNAMGWYRQAPGKERELVAAISWSGASTYYADSVKGRFTISRDNAMNTVYLQMNSLKPEDTAVYYCAADYYGVSGSGYGYWGQGTQVTVSS | low polyreactivity
6 | QVQLVESGAGLVQAGGSLRLSCAASGSIFKYNTMGWYRQAPGKERELVATISGGGRTYYADSVKGRFTISRDNAKNTVYLQMNSLKPEDTAVYYCAARKRGTFTYDYWGQGTQVTVSS | high polyreactivity
7 | QVQLVESGAGLVQAGGSLRLSCAASGSIFSYYVMGWYRQAPGKERELVAAISYSGGRTYYADSVKGSFTISRDNAKYTVYLQMNSLKPEDTAVYFCAASRRVGEVSYYYWGQGTQVTVSS | high polyreactivity
8 | QVQLVESGAGLVQAGGSLRLSCAASGSIFVQYAMGWSRQAPRNERELVAGISSIGGSTYYADSVKGRFTLSRDNSKNSVYLQMNSLKPEDTAVYYCAKRWRSSYRIGHDYWRQGTQVTVSS | low polyreactivity
9 | QVQLVESGAGLVQAGGSLRLSCAASGSIFWWNALGWYRQAPGKQRELVAAINWSTGRTYYADSVKGRFTISRDNAKNTVYLQMISLKPEDTAVYYCAACFVGDLGYEYWGQGTQVTVSS | low polyreactivity
10 | QVQLVESGAGLVQAGGSLRLSCAASGSILTAYAMGWYRQAPVKERELVAAISRGDITKYADSVKGRFTISRDNAKNTVYLQMNSLQPEDTAVYYCAARVPRYSDSTRGRADYYWGQVTQVTVSS | high polyreactivity
11 | QVQLVESGAGLVQAGGSLRLSCAASGSTFSRYAMGWYRQAPGKERELVAAISRRGGSTYYSDSVKGRFTISRDNSKNTVYLQKISLKPEDTAVYYCAADPQPSSDRGTYDYWGQGTQVSVSS | high polyreactivity
12 | QVQLVESGAGLVQAGGSLRLSCAASGSTLVFYTMGWYRQAPGKERELVAAISYSGGRTYYADSVKGRFTISRDNAKNTVYLQMNSLKPEDTAVYYCAAVGRSYNRISQYDYWGQGTQVTVSS | high polyreactivity
13 | QVQLVESGAGLVQAGGSLRLSCAASGTIFSGNAMGWYRQAPGKESELVAAISRSGGSTYYADSVKGRFTISRDNAKNTVSLQKNSLKPEDTAVYYCAAYRTHGPPRAIRFDYWGQGSQVTVSS | high polyreactivity
14 | QVQLVESGAGLVQAGGSLRLSCAAYGLIFTYNAMGWYRQAPWKERKLVARITSGGNTNYADSVKGRFTISRDYAKNTVYLQMNSLKPEDTAVYYCATCLYWFTNRYGYWGQGTQVTVSS | low polyreactivity
15 | QVQLVESGAGLVQAGGSLRLSCAPSGITFVGNAMGWSRPAPGKERELVAGIRGNGGSTYYADSVKGRFTISRDNAKNTVYFQMNSLKPEDTAVYYSAAAAYYADFDYWGLGTQVTVSS | low polyreactivity
16 | QVQLVESGAGLVQAGGSLRLSCATYGITISYYAMVWYGQGPGKVSELVAAISTSGGSTYYADSVKGRFTFSRDNAKNTVYLQMNSLKPEDTAVFYCAAVYTTGGYTGLEYWGQGTQVTVSS | high polyreactivity
17 | QVQLVESGAGLVQAGGSLRLTCAASGFIFRDYAMGGYRQAPGKDRELVAAISSGDSTNYADSVKGRFTISRDNAKNTVYLLMNSLKPEDTAVYYCAADQVQYTGYTEYDWGQGTQVTVSS | low polyreactivity
